The values that follow come from PMC8516343.

Assay [1] addresses βTrCP1 (UniProt Q9Y297). Nature of the assay: co-immunoprecipitation. As to conditions: reference: ATF4 wild type; sites S219.
For assay [2], the target named is βTrCP1 (UniProt Q9Y297). Nature of the assay: anti-Myc co-IP, anti-Flag blot. Particulars: reference: Myc-ATF4-WT with Flag-CK1δ; sites S219.

Regarding ATF4 (from UniProt P18848) ATF4-S219A, in assay [1], the “binding against the reference” value is given as “lost”.

Consider “ATF4 (from UniProt P18848) Myc-ATF4-S219A with Flag-CK1δ”, for which the “binding against the reference” value in assay [2] was “weaker”.
